Assay results: article PMC9482650, “Quantitative fragmentomics allow affinity mapping of interactomes” (Nature Communications, 2022)

Key:
Test in all cases: holdup assay
Design in all cases: key: below the threshold = too weak to quantify, mostly under pKd 3.1 to 4
Conditions in all cases: plain residues with an end cap or a label only (N-terminal biotin on a linker: ado-ado)
[1] = molecular target: T1, GRIP1_2, Q9Y3R0
T1 sequence (Q9Y3R0 145-248, limits assumed, looked up): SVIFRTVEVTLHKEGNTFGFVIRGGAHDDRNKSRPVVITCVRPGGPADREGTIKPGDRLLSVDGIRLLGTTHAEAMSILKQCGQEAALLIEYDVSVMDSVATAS

[2] = molecular target: T2, SNTA1, Q13424
T2 sequence (Q13424 82-180, limits assumed, looked up): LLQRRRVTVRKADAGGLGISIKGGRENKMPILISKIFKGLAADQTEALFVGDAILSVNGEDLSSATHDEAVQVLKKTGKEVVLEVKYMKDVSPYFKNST

[3] = molecular target: T3, TJP3_3, O95049
T3 sequence (O95049 375-456, limits assumed, looked up): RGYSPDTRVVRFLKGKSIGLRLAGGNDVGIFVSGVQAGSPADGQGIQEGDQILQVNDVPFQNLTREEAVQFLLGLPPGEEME

[4] = molecular target: MAGI2_4, Q86UL8
[5] = molecular target: T4, NHERF3_3, Q5T2W1
T4 sequence (Q5T2W1 238-333, limits assumed, looked up): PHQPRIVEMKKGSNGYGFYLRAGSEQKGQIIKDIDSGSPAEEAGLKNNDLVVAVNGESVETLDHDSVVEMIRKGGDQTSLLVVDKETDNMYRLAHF

[6] = molecular target: PTPN3, P26045
[7] = molecular target: Inadl_6, Q8NI35
[8] = molecular target: T5, CARD11, Q9BXL7
T5 sequence (Q9BXL7 662-765, limits assumed, looked up): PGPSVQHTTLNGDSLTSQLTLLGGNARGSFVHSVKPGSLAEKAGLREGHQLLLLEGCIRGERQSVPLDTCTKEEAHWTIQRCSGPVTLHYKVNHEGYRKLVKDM

[9] = molecular target: T6, FRMPD1, Q5SYB0
T6 sequence (Q5SYB0 52-145, limits assumed, looked up): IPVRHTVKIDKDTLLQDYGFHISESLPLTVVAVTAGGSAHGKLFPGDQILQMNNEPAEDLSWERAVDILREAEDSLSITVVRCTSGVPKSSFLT

[10] = molecular target: GRIP2_4, Q9C0E4
[11] = molecular target: MAGI2_5, Q86UL8
[12] = molecular target: Inadl_5, Q8NI35
[13] = molecular target: SCRIB_2, Q14160
[14] = molecular target: ARHGEF12, Q9NZN5-2
[15] = molecular target: T7, PDZD2_2, O15018
T7 sequence (O15018 329-429, limits assumed, looked up): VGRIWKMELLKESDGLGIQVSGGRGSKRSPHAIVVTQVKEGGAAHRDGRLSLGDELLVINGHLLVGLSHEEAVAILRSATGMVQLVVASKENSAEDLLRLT

[16] = molecular target: T8, SIPA1L2, Q9P2F8
T8 sequence (Q9P2F8 945-1036, limits assumed, looked up): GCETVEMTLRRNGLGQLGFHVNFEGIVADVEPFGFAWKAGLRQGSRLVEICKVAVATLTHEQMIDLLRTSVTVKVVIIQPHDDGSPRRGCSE

[17] = molecular target: PICK1, Q9NRD5
[18] = molecular target: DLG1_3, Q12959
[19] = molecular target: NHERF4_2, Q86UT5
[20] = molecular target: LNX1_3, Q8TBB1
[21] = molecular target: LDB3, O75112
[22] = molecular target: T9, SNTG1, Q9NSN8
T9 sequence (Q9NSN8 52-150, limits assumed, looked up): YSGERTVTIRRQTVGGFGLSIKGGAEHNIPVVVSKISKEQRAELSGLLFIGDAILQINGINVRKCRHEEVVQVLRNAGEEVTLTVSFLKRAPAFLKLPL

[23] = molecular target: MAGI2_3, Q86UL8
[24] = molecular target: T10, HTRA4, P83105
T10 sequence (P83105 378-476, limits assumed, looked up): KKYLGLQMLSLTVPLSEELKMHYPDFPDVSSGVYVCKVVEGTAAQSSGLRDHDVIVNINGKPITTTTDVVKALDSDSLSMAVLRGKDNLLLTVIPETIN

[25] = molecular target: GIPC2, Q8TF65
[26] = molecular target: HTRA1, Q92743
[27] = molecular target: T11, NHERF3_4, Q5T2W1
T11 sequence (Q5T2W1 373-468, limits assumed, looked up): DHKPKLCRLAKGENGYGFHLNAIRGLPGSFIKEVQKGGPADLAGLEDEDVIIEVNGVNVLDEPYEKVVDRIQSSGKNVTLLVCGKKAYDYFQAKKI

Measured: pKd

Sequence of PICK1, Q9NRD5 (Q9NRD5 17-115): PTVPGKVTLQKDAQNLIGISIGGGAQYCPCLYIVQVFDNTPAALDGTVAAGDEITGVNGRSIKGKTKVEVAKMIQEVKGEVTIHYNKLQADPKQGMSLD
Sequence of PTPN3, P26045 (P26045 505-587): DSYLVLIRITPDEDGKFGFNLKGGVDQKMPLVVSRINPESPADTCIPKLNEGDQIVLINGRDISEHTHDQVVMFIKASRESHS
Sequence of LDB3, O75112 (O75112 1-94): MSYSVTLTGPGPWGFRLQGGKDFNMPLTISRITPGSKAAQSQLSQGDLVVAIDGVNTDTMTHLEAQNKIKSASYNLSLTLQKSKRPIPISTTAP
Sequence of LNX1_3, Q8TBB1 (Q8TBB1 500-596): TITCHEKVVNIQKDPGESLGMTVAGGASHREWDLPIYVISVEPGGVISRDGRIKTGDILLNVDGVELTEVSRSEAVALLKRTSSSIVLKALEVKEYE
Sequence of Inadl_5, Q8NI35 (Q8NI35 673-780): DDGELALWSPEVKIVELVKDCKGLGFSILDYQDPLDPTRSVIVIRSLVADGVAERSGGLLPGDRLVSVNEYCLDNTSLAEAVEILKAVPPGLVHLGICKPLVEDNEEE
Sequence of GIPC2, Q8TF65 (Q8TF65 112-203): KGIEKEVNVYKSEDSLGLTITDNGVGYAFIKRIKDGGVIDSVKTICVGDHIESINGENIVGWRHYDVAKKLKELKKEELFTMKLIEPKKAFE
Sequence of HTRA1, Q92743 (Q92743 360-477): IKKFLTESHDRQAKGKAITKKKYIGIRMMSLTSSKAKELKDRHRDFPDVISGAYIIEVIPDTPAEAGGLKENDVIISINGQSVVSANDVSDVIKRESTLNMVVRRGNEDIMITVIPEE
Sequence of MAGI2_5, Q86UL8 (Q86UL8 915-1017): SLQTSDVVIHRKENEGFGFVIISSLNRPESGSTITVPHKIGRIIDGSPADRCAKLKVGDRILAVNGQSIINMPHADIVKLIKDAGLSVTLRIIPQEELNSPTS
Sequence of MAGI2_3, Q86UL8 (Q86UL8 600-682): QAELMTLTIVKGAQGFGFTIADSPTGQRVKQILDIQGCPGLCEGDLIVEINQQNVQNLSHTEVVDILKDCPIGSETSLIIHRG
Sequence of SCRIB_2, Q14160 (Q14160 857-960): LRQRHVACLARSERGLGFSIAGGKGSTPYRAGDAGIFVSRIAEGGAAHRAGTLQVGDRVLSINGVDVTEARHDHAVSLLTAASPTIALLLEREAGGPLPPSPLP
Sequence of DLG1_3, Q12959 (Q12959 457-571): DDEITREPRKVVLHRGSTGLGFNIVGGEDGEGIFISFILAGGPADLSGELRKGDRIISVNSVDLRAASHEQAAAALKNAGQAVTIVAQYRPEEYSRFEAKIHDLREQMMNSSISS
Sequence of ARHGEF12, Q9NZN5-2 (Q9NZN5 other isoform, or with tags, fused parts or gaps): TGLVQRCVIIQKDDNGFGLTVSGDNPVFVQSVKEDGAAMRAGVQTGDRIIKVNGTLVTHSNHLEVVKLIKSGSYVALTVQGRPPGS
Sequence of MAGI2_4, Q86UL8 (Q86UL8 772-865): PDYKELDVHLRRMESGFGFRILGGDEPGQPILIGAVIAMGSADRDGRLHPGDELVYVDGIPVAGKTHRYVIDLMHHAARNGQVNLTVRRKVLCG
Sequence of Inadl_6, Q8NI35 (Q8NI35 1058-1167): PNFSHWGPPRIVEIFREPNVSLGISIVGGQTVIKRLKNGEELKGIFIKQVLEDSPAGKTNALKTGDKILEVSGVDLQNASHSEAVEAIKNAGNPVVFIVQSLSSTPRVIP
Sequence of NHERF4_2, Q86UT5 (Q86UT5 220-308): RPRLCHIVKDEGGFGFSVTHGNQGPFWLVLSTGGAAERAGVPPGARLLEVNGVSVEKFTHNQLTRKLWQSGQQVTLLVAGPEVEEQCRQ
Sequence of GRIP2_4, Q9C0E4 (Q9C0E4 446-548): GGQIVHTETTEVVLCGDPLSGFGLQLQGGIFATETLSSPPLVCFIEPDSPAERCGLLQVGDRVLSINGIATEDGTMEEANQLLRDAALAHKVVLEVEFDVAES

KKAPTNEFYA [SDC4, P31431]
4.02: [6]
4.41: [26]
below the threshold: all other assays above

QGPVETESVV [SLC45A4, Q5BKX6]
4.75: [22]
3.65: [23]
3.97: [24]
5.27: [15]
4.55: [11] | [26]
3.76: [4]
4.37: [25]
3.67: [13]
4.93: [2]
3.59: [3]
4.66: [6]
3.57: [7]
3.54: [12]
below the threshold: all other assays above

VKPQVSESKL [ACOT8, O14734]
4.63: [6]
4.03: [14]
3.52: [13]
3.6: [21]
3.84: [17]
below the threshold: all other assays above

FNSYSLTGYV [CLDN2, P57739]
4.14: [17]
4.31: [3]
4.08: [24]
3.6: [12]
4.65: [15]
3.64: [2]
4.24: [4]
4.4: [26]
3.5: [16]
3.84: [14]
3.63: [23]
below the threshold: all other assays above

TKGPRGPTRV [SAPCD1, Q5SSQ6]
4.31: [18]
4.39: [2]
3.61: [12]
4.11: [17]
4.69: [23]
4.24: [14]
3.88: [15]
3.96: [24]
below the threshold: all other assays above
